Where “and” joins values, the source holds several entries; their conditions need not be identical. Identical values can stand only once. Square brackets hold non-standard residues; d marks the D form. Ends that are not written are not given here.
Target: Tau40 P301L protein (human)
Test: cell-based or functional assay

Binder	IC50, Tau40 assay (ThT)
[dF][dE][dI][dR][dL][dW][dH][dH] [feirlwhh]	3.38 µM
[dL][dH][dI][dK][dL][dK][dH][dF] [lhiklkhf]	4.44 µM and 4.64 µM
[dL][dA][dI][dR][dI][dH][dY] [lairihy]	3.98 µM
[dF][dR][dL][dW][dI][dH][dW][dF] [frlwihwf]	4.39 µM and 6.88 µM
[dA][dK][dI][dR][dI][dH][dY][dH] [akirihyh]	3.54 µM
[dH][dK][dI][dR][dI][dH][dY][dH] [hkirihyh]	3.84 µM
[dF][dK][dL][dE][dI][dR][dY][dH] [fkleiryh]	3.38 µM
[dW][dW][dL][dK][dL][dR][dW] [wwlklrw]	3.54 µM
[dW][dH][dV][dR][dI][dR][dH][dV] [whvrirhv]	5.03 µM
[dW][dL][dK][dI][dV][dW] [wlkivw]	3.62 µM
[dL][dK][dI][dF][dI][dH][dY][dH] [lkifihyh]	4.57 µM
[dY][dR][dL][dK][dV][dR][dW] [yrlkvrw]	4.69 µM
[dR][dI][dH][dY][dH][dI][dK][dL] [rihyhikl]	3.59 µM
[dR][dL][dR][dL][dK][dW] [rlrlkw]	3.43 µM
[dL][dK][dI][dE][dI][dH][dY][dH] [lkieihyh]	3.64 µM
[dF][dR][dI][dK][dL][dK][dW][dH] [friklkwh]	3.88 µM and 3.9 µM
[dK][dV][dR][dW][dW][dW][dR][dL] [kvrwwwrl]	3.84 µM
[dL][dK][dI][dR][dI][dH] [lkirih]	4.95 µM
[dI][dH][dY][dH][dR][dI][dK][dL] [ihyhrikl]	5.12 µM
[dR][dL][dK][dV][dR][dW] [rlkvrw]	3.38 µM and 3.59 µM and 3.81 µM and 4.79 µM
[dF][dK][dL][dW][dL][dR][dW][dF] [fklwlrwf]	4.19 µM and 7.03 µM
[dK][dL][dK][dW][dL][dW] [klkwlw]	4.41 µM

Binder	IC50, Tau40 assay (ThT)
[dK][dI][dR][dI][dH][dY][dH] [kirihyh]	4.92 µM
[dW][dW][dL][dR][dI][dH][dW][dW] [wwlrihww]	4.09 µM and 5.61 µM
[dH][dR][dF][dK][dV][dQ][dL][dY] [hrfkvqly]	4.03 µM
[dW][dK][dL][dK][dL][dR][dW][dW] [wklklrww]	4.13 µM
[dF][dE][dI][dR][dL][dH][dH][dW] [feirlhhw]	4.2 µM
[dL][dD][dL][dR][dF][dK][dL][dY] [ldlrfkly]	3.43 µM
[dF][dK][dI][dE][dL][dH][dW][dH] [fkielhwh]	3.37 µM and 3.44 µM
[dL][dE][dI][dR][dI][dH][dY][dH] [leirihyh]	4.07 µM
[dW][dN][dL][dK][dV][dN][dW] [wnlkvnw]	4.86 µM
[dW][dK][dL][dK][dL][dR][dW] [wklklrw]	3.56 µM and 7.39 µM
[dY][dR][dV][dR][dI][dQ][dH][dI] [yrvriqhi]	5.13 µM
[dK][dW][dR][dW][dY][dR][dR] [kwrwyrr]	3.55 µM
[dW][dR][dL][dR][dI][dW][dW][dW] [wrlriwww]	3.76 µM and 5.41 µM
[dY][dH][dV][dK][dF][dR][dH][dW] [yhvkfrhw]	4.71 µM
[dF][dE][dL][dK][dL][dR][dW][dH] [felklrwh]	4.94 µM and 5.3 µM
[dF][dH][dL][dH][dL][dK][dH][dW] [fhlhlkhw]	3.74 µM
[dR][dW][dK][dV][dR][dW] [rwkvrw]	3.7 µM
[dL][dK][dI][dR][dI][dE][dH][dY] [lkiriehy]	4.53 µM
[dK][dI][dR][dI][dH][dY][dH][dL] [kirihyhl]	4.59 µM
[dR][dL][dR][dV][dR][dW] [rlrvrw]	3.71 µM and 4.76 µM
[dF][dR][dL][dR][dI][dH][dW][dF] [frlrihwf]	3.77 µM and 7.09 µM
[dW][dK][dV][dQ][dV][dR][dY][dW] [wkvqvryw]	3.54 µM

From US20200216495A1 (ADRX, published 2020)
